{"source": "paper doi:10.1101/2022.01.11.475884", "about": "(bioRxiv, 2022)", "binders": {"B1": {"name": "purified and biotinylated TAK1 (enzyme, human, UniProt O43318 1-606, looked up)", "chain": "MSTASAASSSSSSSAGEMIEAPSQVLNFEEIDYKEIEVEEVVGRGAFGVVCKAKWRAKDVAIKQIESESERKAFIVELRQLSRVNHPNIVKLYGACLNPVCLVMEYAEGGSLYNVLHGAEPLPYYTAAHAMSWCLQCSQGVAYLHSMQPKALIHRDLKPPNLLLVAGGTVLKICDFGTACDIQTHMTNNKGSAAWMAPEVFEGSNYSEKCDVFSWGIILWEVITRRKPFDEIGGPAFRIMWAVHNGTRPPLIKNLPKPIESLMTRCWSKDPSQRPSMEEIVKIMTHLMRYFPGADEPLQYPCQYSDEGQSNSATSTGSFMDIASTNTSNKSDTNMEQVPATNDTIKRLESKLLKNQAKQQSESGRLSLGASRGSSVESLPPTSEGKRMSADMSEIEARIAATTAYSKPKRGHRKTASFGNILDVPEIVISGNGQPRRRSIQDLTVTGTEPGQVSSRSSSPSVRMITTSGPTSEKPTRSHPWTPDDSTDTNGSDNSIPMAYLTLDHQLQPLAPCPNSKESMAVFEQHCKMAQEYMKVQTEIALLLQRKQELVAELDQDEKDQQNTSRLVQEHKKLLDENKSLSTYYQQCKKQLEVIRSQQQKRQGTS", "modifications": "biotinylated"}}, "molecular_target": "T1, purified Mfn2 (human, UniProt O95140 1-757)", "T1 sequence (looked up)": "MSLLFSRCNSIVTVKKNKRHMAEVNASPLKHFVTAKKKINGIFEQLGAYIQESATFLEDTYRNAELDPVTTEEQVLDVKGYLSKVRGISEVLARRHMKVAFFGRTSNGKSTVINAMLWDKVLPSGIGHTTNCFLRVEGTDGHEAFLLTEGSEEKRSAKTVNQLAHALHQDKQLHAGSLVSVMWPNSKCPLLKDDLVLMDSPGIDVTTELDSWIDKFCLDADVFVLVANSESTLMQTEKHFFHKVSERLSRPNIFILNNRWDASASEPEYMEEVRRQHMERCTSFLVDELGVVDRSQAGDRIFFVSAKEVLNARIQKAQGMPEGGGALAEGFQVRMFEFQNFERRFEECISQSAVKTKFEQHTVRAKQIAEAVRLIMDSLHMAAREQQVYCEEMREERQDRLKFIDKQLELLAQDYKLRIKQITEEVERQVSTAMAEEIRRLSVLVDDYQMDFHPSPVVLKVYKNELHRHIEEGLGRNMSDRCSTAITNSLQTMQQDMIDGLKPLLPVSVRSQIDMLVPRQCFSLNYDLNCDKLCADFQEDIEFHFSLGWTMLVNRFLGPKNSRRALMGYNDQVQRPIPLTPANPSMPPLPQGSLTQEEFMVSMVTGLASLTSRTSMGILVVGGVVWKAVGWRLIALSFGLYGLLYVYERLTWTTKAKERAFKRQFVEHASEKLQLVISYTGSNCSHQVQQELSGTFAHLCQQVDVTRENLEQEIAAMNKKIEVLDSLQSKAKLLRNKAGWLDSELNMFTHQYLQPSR", "assay": "pull-down"}
{"binder": "B1", "values": [{"measurement": "binding result", "value": "binds"}]}
